Patent publication CN117357474A (JIANGSU QUANXIN BIOMEDICAL CO LTD, dated 2024)
Values belong to the binder of their own block, whether it stands above or below them.

Key:
[1] = target: T1, human IL-36R on cells (HT29 reporter cells, HT29, A431, human PBMC) (human, UniProt Q9HB29 20-575); test: cell-based or functional assay
T1 sequence (looked up): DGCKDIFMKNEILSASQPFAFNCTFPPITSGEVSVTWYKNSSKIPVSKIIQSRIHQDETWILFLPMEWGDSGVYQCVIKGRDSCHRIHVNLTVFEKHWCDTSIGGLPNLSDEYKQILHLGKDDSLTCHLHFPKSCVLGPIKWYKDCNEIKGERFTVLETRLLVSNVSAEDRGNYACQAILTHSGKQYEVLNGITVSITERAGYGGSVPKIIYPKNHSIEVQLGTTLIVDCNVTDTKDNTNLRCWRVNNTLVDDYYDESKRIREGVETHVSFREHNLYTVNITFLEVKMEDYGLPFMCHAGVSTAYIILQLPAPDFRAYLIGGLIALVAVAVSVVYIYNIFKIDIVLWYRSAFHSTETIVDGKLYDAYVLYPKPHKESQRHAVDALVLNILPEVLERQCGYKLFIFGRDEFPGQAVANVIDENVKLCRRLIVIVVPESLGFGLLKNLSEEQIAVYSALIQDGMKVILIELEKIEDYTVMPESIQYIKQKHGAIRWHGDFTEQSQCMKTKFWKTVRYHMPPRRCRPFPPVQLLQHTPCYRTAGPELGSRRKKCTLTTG

[2] = target: T2, 人白介素-36受体 (human IL-36R), soluble antigen in the Biacore assay (human); test: SPR, Biacore T200, antibody captured on Protein A chip, antigen in flow, 25°C, 1:1 model, mean of three runs
T2 chain: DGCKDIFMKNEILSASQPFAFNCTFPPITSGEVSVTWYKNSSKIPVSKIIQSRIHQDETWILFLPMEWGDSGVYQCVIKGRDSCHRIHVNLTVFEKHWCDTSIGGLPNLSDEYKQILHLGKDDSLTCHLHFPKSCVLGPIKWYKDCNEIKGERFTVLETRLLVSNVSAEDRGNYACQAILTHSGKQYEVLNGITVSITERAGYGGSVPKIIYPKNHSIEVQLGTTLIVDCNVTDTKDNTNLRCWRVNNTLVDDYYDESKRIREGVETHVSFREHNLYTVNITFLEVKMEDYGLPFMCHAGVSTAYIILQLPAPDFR

抑制人IL-36(α、β、γ)诱导A431细胞释放CXCL-1的IC50 [1]: 4.12 ng/mL | 抑制人IL-36(α、β、γ)诱导A431细胞释放IL-8的IC50 [1]: 2.89 ng/mL | 抑制人IL-36(α、β、γ)诱导HT29细胞释放CXCL-1的IC50 [1]: 2.21 ng/mL | 抑制人IL-36(α、β、γ)诱导HT29细胞释放IL-8的IC50 [1]: 1.53 ng/mL | 抑制人IL-36(α、β、γ)诱导的HT29报告基因细胞STAT3磷酸化活性的IC50 [1]: 2.16 ng/mL | 抑制人IL-36β诱导的人PBMC细胞释放IL-8活性的IC50 [1]: 4.69 ng/mL | Kd [2]: 0.313 nM | koff [2]: 3.58e-05 s⁻¹ | kon [2]: 114000 M⁻¹ s⁻¹
B1: QX009N(HZD25-54) (antibody, V domains shown)
VH: EVQLVESGGGLVQPGGSLRLSCAASGIDLSNYAMGWVRQAPGKGLEWVGYISGGGSAYYASWAKGRFTISRDNSKNTLYLQMNSLRAEDTAVYYCARWAIKSYFFGMDLWGQGTLVTVSS
VL: DIQMTQSPSSVSASVGDRVTITCQASEYISSYLAWYQQKPGKAPKLLIYQASTLASGVPSRFSGSGSGTDFTLTISSLQPEDFATYYCQTNNAIHTYGGAFGGGTKVEIK

抑制人IL-36(α、β、γ)诱导A431细胞释放CXCL-1的IC50 [1]: 22.5 ng/mL | 抑制人IL-36(α、β、γ)诱导A431细胞释放IL-8的IC50 [1]: 16 ng/mL | 抑制人IL-36(α、β、γ)诱导HT29细胞释放CXCL-1的IC50 [1]: 12.3 ng/mL | 抑制人IL-36(α、β、γ)诱导HT29细胞释放IL-8的IC50 [1]: 11.5 ng/mL | 抑制人IL-36(α、β、γ)诱导的HT29报告基因细胞STAT3磷酸化的IC50 [1]: 15.7 ng/mL | 抑制人IL-36β诱导的人PBMC释放IL-8活性的IC50 [1]: 26.6 ng/mL | Kd [2]: 0.862 nM | koff [2]: 3.11e-05 s⁻¹ | kon [2]: 36000 M⁻¹ s⁻¹
B2: Spesolimab (self-made from the B6 sequence of US9023995B2) (antibody, V domains shown)
VH: QVQLVQSGAEVKKPGASVKVSCKASGYSFTSSWIHWVKQAPGQGLEWMGEINPGNVRTNYNENFRNKVTMTVDTSISTAYMELSRLRSDDTAVYYCTVVFYGEPYFPYWGQGTLVTVSS
VL: QIVLTQSPGTLSLSPGERATMTCTASSSVSSSYFHWYQQKPGQAPRLWIYRTSRLASGVPDRFSGSGSGTDFTLTISRLEPEDAATYYCHQFHRSPLTFGAGTKLEIK
